From US12692303 (QYUNS THERAPEUTICS, dated 2026) come the findings set out here.

Substitutions are numbered along the chain they refer to.

The target of assay [1] is T1, IL-23 mutant F144S (human, UniProt Q9NPF7 20-189; P29460 23-328).
T1 construct: 293F cell supernatant
T1 chain 1: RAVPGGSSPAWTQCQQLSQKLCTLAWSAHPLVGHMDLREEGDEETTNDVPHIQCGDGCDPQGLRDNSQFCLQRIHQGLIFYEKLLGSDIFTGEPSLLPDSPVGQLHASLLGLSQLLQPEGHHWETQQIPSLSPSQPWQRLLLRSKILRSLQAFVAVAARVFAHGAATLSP
T1 chain 2: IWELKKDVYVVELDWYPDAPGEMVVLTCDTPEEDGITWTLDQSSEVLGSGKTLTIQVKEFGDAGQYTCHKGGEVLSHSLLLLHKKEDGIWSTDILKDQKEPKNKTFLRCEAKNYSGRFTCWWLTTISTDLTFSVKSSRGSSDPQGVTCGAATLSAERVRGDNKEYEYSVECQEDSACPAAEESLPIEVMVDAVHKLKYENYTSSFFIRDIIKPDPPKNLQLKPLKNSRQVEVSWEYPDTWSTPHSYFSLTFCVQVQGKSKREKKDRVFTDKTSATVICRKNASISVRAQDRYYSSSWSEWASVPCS
The experiment in a line: binding ELISA, antibody coated at 1 µg/ml, IL-23 mutant supernatant titrated, anti-His detection. The procedure:
(§1) Mutation primers were designed through PCR method. The p19 mutant plasmid was co-transfected with p40 plasmid into 293F cells to prepare a cell supernatant containing the IL-23 mutant.
(§2) After blocking, a series of cell supernatant dilutions of IL-23 mutant diluted to a concentration ranging from 0 to 0.5 μg/ml for incubation. Then, Biotin labeled anti-His antibody and SA-HRP were added respectively for incubation, finally the substrate was added for color development, and the termination solution was added to terminate the color reaction. After termination, the ELISA plate was placed in a microplate reader to read the absorption value at 450 nm (the absorption values at 650 nm was taken as reference), and the dose effect curve was plotted and the $EC50$ value was calculated.
In general terms: In an ELISA, binding on a coated surface is turned into a signal by an enzyme label.

A further assay addresses T2, IL-23 mutant W137A (human, UniProt Q9NPF7 20-189; P29460 23-328).
T2 construct: p19 mutant plasmid co-transfected with p40 plasmid into 293F cells; used as cell supernatant
T2 chain 1: T1 chain 1 with W137A, S144F
T2 chain 2: T1 chain 2
The description is as above. The procedure: as §1, §2

Another assay deals with T3, IL-23 mutant W137D (human, UniProt Q9NPF7 20-189; P29460 23-328).
T3 construct: 293F cell supernatant
T3 chain 1: T1 chain 1 with W137D, S144F
T3 chain 2: T1 chain 2
Described as above. The procedure:
as §1, §2

The target of assay [2] is T4, IL-23 mutant L140P (human, UniProt Q9NPF7 20-189; P29460 23-328).
T4 construct: 293F cell supernatant
T4 chain 1: T1 chain 1 with L140P, S144F
T4 chain 2: T1 chain 2
The description is as above. The procedure: as §1, §2

Another assay deals with T5, IL-23 mutant R143A (human, UniProt Q9NPF7 20-189; P29460 23-328).
T5 construct: 293F cell supernatant
T5 chain 1: T1 chain 1 with R143A, S144F
T5 chain 2: T1 chain 2
The assay is described as above. The procedure:
as §1, §2

The target of assay [3] is T6, Human interleukin 23 (hIL-23) (human, UniProt Q9NPF7 20-189; P29460 23-328).
T6 sequence 1: T1 chain 1 with S144F
T6 sequence 2: T1 chain 2
The experiment in a line: cell-based or functional assay.

The target of another assay is T7, Natural IL-23 (human, UniProt Q9NPF7 20-189; P29460 23-328).
T7 construct: It was detected with an anti-His antibody, so it carries a His tag
T7 sequence 1: T1 chain 1 with S144F
T7 sequence 2: T1 chain 2
As to the kind of experiment: binding ELISA, antibody coated at 1 µg/ml, IL-23 titrated, anti-His detection.

The target in assay [4] is T6, Human interleukin 23 (hIL-23). The experiment in a line: SPR, Biacore T200, antibody captured on Protein A chip, IL-23 in flow, 25 °C, 1:1 model. The procedure: Commercialized Protein A chip was used to immobilize an appropriate amount of antibody by capture method, the Rmax was about 50 RU and the capture flow rate was 10 μl/min. The antigen was diluted by gradient, and the flow rate of the instrument was switched to 30 μl/min. The diluted antigen flowed through the reference channel and the channel of immobilized antibody in sequence from low to high concentration, and flowed through the buffer as negative control. The chip was regenerated with glycine at pH 1.5 after each binding and dissociation. Fitting was performed with the 1:1 binding model in the Kinetics option using the build-in software in the instrument, and the association rate constant k_a, dissociation rate constant […] and equilibrium dissociation constant K_D of the antibody were calculated.

The target of another assay is T8, IL-23-p40 (human, UniProt P29460 23-328).
T8 construct: also called p40 subunit of IL-23; IL-12/IL-23p40
T8 sequence: T1 chain 2
As to the kind of experiment: Binding ELISA: IL-23-p40 coated at 2 ug/ml, goat anti-human IgG secondary antibody, OD450 (reference 650 nm).

Assay [5] has as its target T1, IL-23 mutant F144S. The experiment in a line: binding ELISA, antibody coated at 1 µg/ml, IL-23 mutant supernatant titrated; N.D: the binding is weak, and the EC50 value is not accurate. The procedure:
as §1, §2

In assay [6] the target is T4, IL-23 mutant L140P. The assay is described as above. The procedure:
as §1, §2

Experimental for IL-23-p40: IL-23-p40 was diluted to 2 μg/ml, added to the ELISA plate, and coated overnight at 4° C. After blocking, a series of antibody dilutions diluted to a concentration ranging from 0 to 5 μg/ml and Goat-anti-human IgG secondary antibody were added respectively for incubation, finally substrate was added for color development, and the termination solution was added to terminate the color reaction. After termination, the ELISA plate was placed in a microplate reader to read the absorption value at 450 nm (the absorption value at 650 nm was taken as reference), and the dose effect curve was plotted to analyze the binding specificity of the antibody.

B1: Risankizumab (antibody, V domains shown)
VH: QVQLVQSGAEVKKPGSSVKVSCKASGYTFTDQTIHWMRQAPGQGLEWIGYIYPRDDSPKYNENFKGKVTITADKSTSTAYMELSSLRSEDTAVYYCAIPDRSGYAWFIYWGQGTLVTVSS
VL: DIQMTQSPSSLSASVGDRVTITCKASRDVAIAVAWYQQKPGKVPKLLIYWASTRHTGVPSRFSGSGSRTDFTLTISSLQPEDVADYFCHQYSSYPFTFGSGTKLEIKR
Regarding B1, the EC50 (in general, the concentration at which the effect is half-maximal) in the assay with IL-23 mutant F144S [1] was found to be 0.0101 µg/mL; with IL-23 mutant W137A, 0.0023 µg/mL; with IL-23 mutant W137D it was 0.0052 µg/mL; with IL-23 mutant L140P [2] it was 0.0544 µg/mL; with IL-23 mutant R143A, 0.307 µg/mL.

B2: QX004N (HZD90-32) (antibody, human IgG1, kappa, V domains shown)
VH: EVQLVESGGGLVQPGGSLRLSCAASGFSLSNHEMSWVRQAPGKGLEWIGIITTSDTTYYATWAKGRFTISRDNSKNTLYLQMNSLRAEDTAVYYCARVDIVLLSVTSRIWGQGTLVTVSS
VL: DVVMTQSPSSLSASVGDRVTITCQASQSVSTYLSWYQQKPGKAPKLLIYGASNLESGVPSRFSGSGSGTDFTLTISSLQPEDFATYYCQSGYVFAGLTFGGGTKVEIKR
notes: Expressed in ExpiCHO-S cells, purified on Protein A; also called humanized clone 90#; 90VH-Hu18/90VK-Hu9
For B2, in assay [3], the “IC50, inhibition of phosphorylation of STAT3 in HEK Blue IL-23 cells induced by IL-23” value amounted to 0.00321 µg/mL. Moreover, the “IC50, inhibition of release of IFN-γ from human NK cells induced by IL-23” value in assay [3] was 0.0104 µg/mL. Further, in [3], the “IC50, inhibition of release of IL-17A from mouse spleen cells induced by IL-23” value was found to be 0.0117 µg/mL. The concentration for a half-maximal effect (EC50) with Natural IL-23 turned out to be 0.0017 µg/mL; with IL-23 mutant W137A, 0.0501 µg/mL; with IL-23 mutant W137D, 0.363 µg/mL; with IL-23 mutant R143A, 0.0034 µg/mL. The Kd – broadly, the free concentration of one partner at which half of the binding sites on the other are occupied at equilibrium, for simple one-to-one binding – in [4] was 0.101 nM. In addition, the koff – broadly, a measure of how fast the partners let go of each other – in [4] was 3.5e-05 s⁻¹. The kon (in general, a measure of how fast the partners come together) in [4] was 366000 M⁻¹ s⁻¹. For the same molecule, the binding result in the assay with IL-23-p40 was “no binding”; in the assay with IL-23 mutant F144S [5], “binds”; with IL-23 mutant L140P [6] it was “binds”.
